The values below come from patent US6403765B1, “Truncated Apaf-1 and methods of use thereof” (Thomas Jefferson University, priority 1998, dated 2002).

One assay relates to MCF-7 cells. As to the kind of experiment: Inhibition of apoptosis in transfected MCF-7 cells. Format: cell-based. The following applies: apoptosis induced by UV, Fas agonist antibody, TRAIL, or overexpression of DR4 and DR5, FIG. 17. An excerpt:
To express the caspases or truncated Apaf-1 in mammalian cells and assay their apoptotic activity, they were amplified with the T7-tag primer and reverse primers using the pET28a constructs as templates, and subcloned into the mammalian double expression vector pRSC-LacZ (MacFarlane et al., J. Biol. Chem., 272:25417-25420, 1997; Tsang et al., Bio/Technology, 22:68, 1997) or as previously described (Li et al., Cell 91:479-489, 1997; Srinivasula et al., J. Biol. Chem., 272:18452-18545, 1997). This vector allows the expression of lacZ under the Rous Sarcoma virus promoter, and the test cDNA under the CMV promoter. To assay for apoptosis, MCF-7 or 293 cells were transfected, using the method commercially available as the Lipofect Amine method (Life Technologies, Inc.), with the pRSC-LacZ constructs in the presence or absence of different apoptosis-inhibitors. 30 h after transfection cells were stained with β-galactosidase and examined for morphological signs of apoptosis. The percentage of round blue apoptotic cells (mean±SD) were determined by phase contrast microscopy and then represented as a function of total blue cells under each condition (n≧3).

In a further assay the target is T1, T7-tagged Apaf-530 (Homo sapiens, UniProt O14727).
T1 construct: expressed in transfected cells; host or cells: 293 cells
T1 sequence (O14727 1-530 isoform O14727-3): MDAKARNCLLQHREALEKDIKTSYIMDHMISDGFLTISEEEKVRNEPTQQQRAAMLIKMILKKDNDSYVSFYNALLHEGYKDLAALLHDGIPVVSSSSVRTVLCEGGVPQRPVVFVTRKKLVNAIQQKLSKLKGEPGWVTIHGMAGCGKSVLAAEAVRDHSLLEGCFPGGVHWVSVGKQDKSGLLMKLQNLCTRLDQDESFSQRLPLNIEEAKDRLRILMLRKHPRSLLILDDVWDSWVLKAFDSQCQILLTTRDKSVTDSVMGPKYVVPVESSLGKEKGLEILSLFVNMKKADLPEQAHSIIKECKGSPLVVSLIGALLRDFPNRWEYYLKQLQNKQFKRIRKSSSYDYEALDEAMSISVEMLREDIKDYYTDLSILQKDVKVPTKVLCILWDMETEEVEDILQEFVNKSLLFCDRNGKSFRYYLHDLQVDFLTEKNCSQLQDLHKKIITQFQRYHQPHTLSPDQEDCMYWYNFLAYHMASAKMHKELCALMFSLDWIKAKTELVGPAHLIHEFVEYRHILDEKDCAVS
As to the kind of experiment: Co-immunoprecipitation of Flag-tagged Apaf-1 variants with T7-tagged Apaf-530 in 293 cells. Format: binding. Conditions: anti-Flag immunoprecipitation, anti-T7 blot, 36 hours, FIG. 11. How it is done:
The ability of APAF-530 to oligomerize pro-caspase-9 was tested. Co-transfection experiments in 293 cells were performed with T7-tagged Apaf-530 and different Flag-tagged Apaf-1 variants, and cell lysates were prepared and immunoprecipitated with an anti-Flag antibody. The immunoprecipitates were analyzed by Western blotting with an anti-T7 antibody.
In FIG. 11, 293 cells were co-transfected with constructs encoding T7-tagged Apaf-530 and an empty vector (lane 1) or constructs encoding Flag-tagged Apaf-1 (lane 2), Flag-tagged Apaf-530 (lane 3), Flag-tagged Apaf-530ΔCARD (lane 4) or Flag-tagged Apaf-97 (lane 5). After 36 hours, extracts were prepared and immunoprecipitated with a monoclonal antibody to the Flag epitope. The immunoprecipitates (upper panel) were analyzed by SDS-PAGE and immunoblotted with a horseradish peroxides-conjugated T7 antibody. The corresponding cellular extracts were also analyzed by SDS-PAGE and immunoblotted with a horseradish peroxides-conjugated T7 antibody (middle panel) or an anti-Flag antibody (lower panel).

The target of a further assay is T2, procaspase-9 (Homo sapiens, UniProt P55211).
T2 construct: schematic representation of full length procaspase-9; made in house; host or cells: coupled in vitro transcription/translation in rabbit reticulocyte lysate (TNT Kit, Promega)
T2 sequence (P55211 1-416): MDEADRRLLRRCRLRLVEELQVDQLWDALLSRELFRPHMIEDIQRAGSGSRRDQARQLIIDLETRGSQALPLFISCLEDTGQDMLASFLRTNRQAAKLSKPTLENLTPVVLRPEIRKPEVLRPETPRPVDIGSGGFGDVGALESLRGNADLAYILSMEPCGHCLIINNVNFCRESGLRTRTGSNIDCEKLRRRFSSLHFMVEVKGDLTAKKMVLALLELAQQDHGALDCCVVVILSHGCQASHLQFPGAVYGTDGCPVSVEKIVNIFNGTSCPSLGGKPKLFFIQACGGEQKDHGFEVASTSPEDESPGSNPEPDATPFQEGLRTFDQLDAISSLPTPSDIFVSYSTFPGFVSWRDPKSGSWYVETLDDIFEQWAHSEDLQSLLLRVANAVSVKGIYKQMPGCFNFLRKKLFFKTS
As to the kind of experiment: In vitro caspase 9 activation assay: recombinant Apaf-1 variants incubated with in vitro translated procaspase-9. Conditions: bacterial lysates with truncated Apaf-1 variants, FIG. 2B. In kind it is biochemical. How it is done:
SDS sample buffer was then added to each sample, boiled and subjected to SDS-PAGE analysis followed by autoradiography. In FIG. 2A procaspase-9 was in vitro translated in the presence of ^35S-methionine. Following translation procaspase-9 was desalted by gel filtration through a biospin column (BioRad) to remove unincorporated methionine and free nucleotides. Desalted procaspase-9 was then incubated with 200 ng Ni^2+-affinity purified bacterially expressed recombinant Apaf-530 (WT or K149R mutant) in the presence or absence of cytochrome c or dATP or both for 2 h at 30° C. A mock sample containing Ni^2+-affinity purified material from bacteria transformed with an empty vector was used as a negative control. Following incubation the products were analyzed by SDS-PAGE and autoradiography. In FIG. 2B^35S-labeled procaspase-9 (as described above) was incubated with bacterial lysates containing truncated Apaf-1 variants as indicated and then analyzed as above (2B upper panel). The bacterial lysates were analyzed by SDS-PAGE and immunoblotted with an Apaf-1 antibody which recognizes the N-terminus of Apaf-1 (lanes 2-6) and an anti T7-tag antibody (lanes 7-8) to confirm expression and equivalent concentration of the different Apaf-1 variants (2B lowerpanel). The molecular mass markers are indicated to the right of the lower panel.
^35S-labeled caspases were obtained by in vitro translation in the presence of ^35S-methionine using a coupled transcription/translation system in rabbit reticulocyte lysate using TNT Kit (Promega) according to the manufacturer's recommendations.
To determine the role of the WD-40 repeat in the mechanism of Apaf-1-induced processing of procaspase-9, truncated Apaf-1 (Apaf-530) lacking its WD-40 repeats (FIG. 1) was expressed and purified. To reconstitute a recombinant caspase-9 activation system, the truncated Apaf-530 was incubated with in vitro translated recombinant procaspase-9 in the presence or absence of cytochrome c and dATP. […] It was previously shown that mutation of CED-4 K165R which is required for nucleotide binding destroys its activity (Chinnaiyan et al., Nature 388:728-729, 1997; Jarnes et al., Curr. Biol. 7:246-252, 1997; Seshagiri and Miller, Curr. Biol. 7:455-460, 1997). […] Therefore, either binding of Apaf-1 to cytochrome c and dATP or deletion of the repeats could induce a conformational change enabling Apaf-1 to bind and process procaspase-9.
In FIG. 3, ^35S-labeled WT or mutant D330A, D315A or C287A mutants of procaspase-9 or prodomainless procaspase-9 (Δpro, residues 134-416) were incubated with buffer (lanes 1, 4, 7, 10, 13), purified Apaf-530 (lanes 2, 5, 8, 11, 14) or mock purified material (lanes, 3, 6, 9, 12, 15) and then analyzed by SDS-PAGE and autoradiography.

For a further assay, the target named is T3, T7-tagged Bcl-xL (Homo sapiens, UniProt Q07817).
T3 construct: expressed in transfected cells; host or cells: 293 cells
T3 sequence (Q07817 whole entry): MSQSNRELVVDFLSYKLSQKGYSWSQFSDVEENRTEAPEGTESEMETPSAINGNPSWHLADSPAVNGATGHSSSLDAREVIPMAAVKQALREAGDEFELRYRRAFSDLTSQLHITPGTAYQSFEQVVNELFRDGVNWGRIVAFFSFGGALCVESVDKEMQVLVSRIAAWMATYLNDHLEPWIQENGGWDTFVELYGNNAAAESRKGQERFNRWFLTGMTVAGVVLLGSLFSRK
As to the kind of experiment: Co-immunoprecipitation of Flag-tagged Apaf-1 variants or procaspase-9 with T7-tagged Bcl-xL in 293 cells. Format: binding. The following applies: anti-Flag immunoprecipitation, anti-T7 blot, 36 hours, FIG. 16. How it is done:
In vivo interaction experiments between Apaf-1 variants and Bcl-xL were performed. To analyze the ability of Apaf-1 to interact with Bcl-xL, 293 cells were co-transfected with constructs encoding T7-tagged Bcl-xL and constructs encoding Flag-tagged Apaf-97 (FIG. 16, lane 1), Apaf-1 (FIG. 16, lane 2), Apaf-530 (FIG. 16, lane 3) Apaf-530ΔCARD (FIG. 16, lane 4), or procaspase-9 C287A (FIG. 16, lane 5). After 36 hours, extracts were prepared and immunoprecipitated with a monoclonal antibody to the Flag epitope. The immunoprecipitates (FIG. 16, upper panel) were analyzed by SDS-PAGE and immunoblotted with a horseradish peroxidase-conjugated T7 antibody. The corresponding cellular extracts were also analyzed by SDS-PAGE and immunoblotted with a horseradish peroxides-conjugated T7 antibody (FIG. 16, middle panel) or an anti-Flag antibody (FIG. 16, lower panel).

In the case of “Bcl-xL: Bcl-xL expressed from a transfected construct as apoptosis inhibitor comparator [reference compound]”, in the assay on MCF-7 cells, the inhibition of apoptosis entry is listed as “inhibition”.

B1: Apaf-530ΔCARD: truncated Apaf-1, residues 98-530, CARD domain deleted (protein)
chain: SVRTVLCEGGVPQRPVVFVTRKKLVNAIQQKLSKLKGEPGWVTIHGMAGCGKSVLAAEAVRDHSLLEGCFPGGVHWVSVGKQDKSGLLMKLQNLCTRLDQDESFSQRLPLNIEEAKDRLRILMLRKHPRSLLILDDVWDSWVLKAFDSQCQILLTTRDKSVTDSVMGPKYVVPVESSLGKEKGLEILSLFVNMKKADLPEQAHSIIKECKGSPLVVSLIGALLRDFPNRWEYYLKQLQNKQFKRIRKSSSYDYEALDEAMSISVEMLREDIKDYYTDLSILQKDVKVPTKVLCILWDMETEEVEDILQEFVNKSLLFCDRNGKSFRYYLHDLQVDFLTEKNCSQLQDLHKKIITQFQRYHQPHTLSPDQEDCMYWYNFLAYHMASAKMHKELCALMFSLDWIKAKTELVGPAHLIHEFVEYRHILDEKDCAVS
modifications: left off: small tags and cut ends
notes: truncated Apaf-1, residues 98-530, CARD domain deleted
As for B1, the “co-immunoprecipitation with T7-Apaf-530” value in the assay with T7-tagged Apaf-530 is reported as “co-immunoprecipitated”. For the same molecule, in the assay with procaspase-9, the “activity of the Apaf-1 variant in promoting activation of procaspase-9” value was “inactivated”. Also, in the assay with T7-tagged Bcl-xL, the “co-immunoprecipitation with Bcl-xL” value is given as “capable of immunoprecipitating Bcl-xL”.

B2: Apaf-97: truncated Apaf-1, residues 1-97, entire CED-4 homology region deleted (protein)
chain: MDAKARNCLLQHREALEKDIKTSYIMDHMISDGFLTISEEEKVRNEPTQQQRAAMLIKMILKKDNDSYVSFYNALLHEGYKDLAALLHDGIPVVSSS
modifications: left off: small tags and cut ends
notes: truncated Apaf-1, residues 1-97, entire CED-4 homology region deleted
On to B2, for which the “co-immunoprecipitation with T7-Apaf-530” value with T7-tagged Apaf-530 is “not”. In addition, the “activity of the Apaf-1 variant in promoting activation of procaspase-9” value with procaspase-9 was “inactivated”. For the same molecule, the “co-immunoprecipitation with Bcl-xL” value in the assay with T7-tagged Bcl-xL is on record as “not”.

B3: Apaf-1: full length Apaf-1, 1194 amino acids (protein)
chain: MDAKARNCLLQHREALEKDIKTSYIMDHMISDGFLTISEEEKVRNEPTQQQRAAMLIKMILKKDNDSYVSFYNALLHEGYKDLAALLHDGIPVVSSSSVRTVLCEGGVPQRPVVFVTRKKLVNAIQQKLSKLKGEPGWVTIHGMAGCGKSVLAAEAVRDHSLLEGCFPGGVHWVSVGKQDKSGLLMKLQNLCTRLDQDESFSQRLPLNIEEAKDRLRILMLRKHPRSLLILDDVWDSWVLKAFDSQCQILLTTRDKSVTDSVMGPKYVVPVESSLGKEKGLEILSLFVNMKKADLPEQAHSIIKECKGSPLVVSLIGALLRDFPNRWEYYLKQLQNKQFKRIRKSSSYDYEALDEAMSISVEMLREDIKDYYTDLSILQKDVKVPTKVLCILWDMETEEVEDILQEFVNKSLLFCDRNGKSFRYYLHDLQVDFLTEKNCSQLQDLHKKIITQFQRYHQPHTLSPDQEDCMYWYNFLAYHMASAKMHKELCALMFSLDWIKAKTELVGPAHLIHEFVEYRHILDEKDCAVSENFQEFLSLNGHLLGRQPFPNIVQLGLCEPETSEVYQQAKLQAKQEVDNGMLYLEWINKKNITNLSRLVVRPHTDAVYHACFSEDGQRIASCGADKTLQVFKAETGEKLLEIKAHEDEVLCCAFSTDDRFIATCSVDKKVKIWNSMTGELVHTYDEHSEQVNCCHFTNSSHHLLLATGSSDCFLKLWDLNQKECRNTMFGHTNSVNHCRFSPDDKLLASCSADGTLKLWDATSANERKSINVKQFFLNLEDPQEDMEVIVKCCSWSADGARIMVAAKNKIFLWNTDSRSKVADCRGHLSWVHGVMFSPDGSSFLTSSDDQTIRLWETKKVCKNSAVMLKQEVDVVFQENEVMVLAVDHIRRLQLINGRTGQIDYLTEAQVSCCCLSPHLQYIAFGDENGAIEILELVNNRIFQSRFQHKKTVWHIQFTADEKTLISSSDDAEIQVWNWQLDKCIFLRGHQETVKDFRLLKNSRLLSWSFDGTVKVWNIITGNKEKDFVCHQGTVLSCDISHDATKFSSTSADKTAKIWSFDLLLPLHELRGHNGCVRCSAFSVDSTLLATGDDNGEIRIWNVSNGELLHLCAPLSEEGAATHGGWVTDLCFSPDGKMLISAGGYIKWWNVVTGESSQTFYTNGTNLKKIHVSPDFKTYVTVDNLGILYILQTLE
modifications: left off: small tags and cut ends
notes: full length Apaf-1, 1194 amino acids
B3: in the assay with T7-tagged Apaf-530, the “co-immunoprecipitation with T7-Apaf-530” value was “co-immunoprecipitated”. Also, the “co-immunoprecipitation with Bcl-xL” value with T7-tagged Bcl-xL is listed as “capable of immunoprecipitating Bcl-xL”.
